B1: COV2-2391 (antibody, V domains shown)
VH: QVQLVQSGAEVKKPGASVKVSCKASGYTFGSFDINWVRQATGQGLEWMGRMNSNSGNTAYAQKFQGRVTMTRDTSTNTAYMELSSLRSEDTAMYYCARMRSGWPTHGRPDDFWGRGTLVTVSS
VL: QSVLTQAPSASGTPGQRVTISCSGSNSNIGSYTINWYQQLPGTAPKLLIYGNDQRTSGVPDRFSGSKFGTSASLAISGLQSEDENNYYCAVWDDSLNGLVFGGGTKLTVL
B2: COV2-2096 (antibody, V domains shown)
VH: B1 VH
VL: B1 VL
B3: COV2-2952 (antibody, V domains shown)
VH: EVQLVESGGGLVQPGGSLRLSCAASGLTVRSNYMTWVRQTPGKGLEWVSVIYSGGSTFYADSVKGRFTISRDNSKNTVYLQMNSLRAEDTAVYYCARDLVTYGLDVWGQGTTVTVSS
VL: DIQLTQSPSFLSASVGDRVTITCRASQGISNYLAWYQQKPGTAPNLLIYAASTLQSGVPSRFSGSGSGTEFTLTISSLQPEDFATYYCQLLNSHPLTFGQGTRLEIK
B4: COV2-2165 (antibody, V domains shown)
VH: B3 VH
VL: B3 VL
B5: COV2-2130 (antibody, V domains shown)
VH: EVQLVESGGGLVKPGGSLRLSCAASGFTFRDVWMSWVRQAPGKGLEWVGRIKSKIDGGTTDYAAPVKGRFTISRDDSKNTLYLQMNSLKTEDTAVYYCTTAGSYYYDTVGPGLPEGKFDYWGQGTLVTVSS
VL: not shown

Biological target: SARS-CoV-2 RBD (Table A) (SARS-CoV-2), P0DTC2
Test: ELISA, purified IgG
Details: remark: other sources report otherwise

Row | Binder | ELISA OD 450 nm
1 | B1 | 3.65 OD 450 nm
2 | B2 | 4.3 OD 450 nm
3 | B3 | 3.55 OD 450 nm
4 | B4 | 4.2 OD 450 nm

Biological target: SARS-CoV Spike trimer (Table A) (SARS-CoV), P59594
Test: ELISA, purified IgG
Details: remark: other sources report otherwise

Row | Binder | ELISA OD 450 nm
5 | B5 | 0.1 OD 450 nm
6 | B1 | 0.1 OD 450 nm
7 | B2 | 0.11 OD 450 nm
8 | B3 | 0.15 OD 450 nm
9 | B4 | 0.17 OD 450 nm

Biological target: SARS-CoV-2 S receptor-binding domain (SRBD), residues 319-541 (SARS-CoV-2), P0DTC2
Test: ELISA on coated antigen
Details: remark: other sources report otherwise

Row | Binder | EC50
10 | B2 | 1 ng/mL
11 | B4 | 0.6 ng/mL
